We go through eight molecules from patent US20220380459A1 (DRAGONFLY THERAPEUTICS, published 2022).

Where two headings read alike, the source gives them in different places.

What all share (test): SPR, Fab captured, 37C
The target in assay [1] is T1, V domain of human CD33 (human, UniProt P20138 18-139, limits assumed).
T1 construct: recombinant, fully glycosylated V domain; also called Human CD33 V domain

The target in assay [2] is T2, human CD33 extracellular domain (human, UniProt P20138 18-259).
T2 construct: soluble monomeric ECD; also called human CD33 ECD; hCD33

Assay [3] has as its target T3, deglycosylated V domain of human CD33 (human, UniProt P20138 18-139, limits assumed, N-glycans removed by PNGase).
T3 construct: V domain deglycosylated by PNGase before testing; also called deglycosylated V CD33
Experimental: (§1) Kinetics and affinity of a series of Fab fragments of anti-CD33 antibodies with different CD33 variants (human CD33 ECD, cyno CD33 ECD, V-domain of human CD33, C-domain or human CD33 and selected CD33 SNPs) were assessed by surface plasmon resonance using Biacore 8K instrument (GE Healthcare). Anti-Fab antibody was immobilized on a CMS chip using standard amine coupling chemistry. CD33 FABs were captured on the anti-Fab chip at a density of ˜100 RU. Solutions containing different concentrations of soluble monomeric CD33 or its domains were injected over the captured FABs and control surfaces at 30 μl/min at 37° C. Surfaces were regenerated between cycles by quick injection of 10 mM glycine, pH 1.8. To obtain kinetic rate constants double-referenced data were fit to a 1:1 interaction model using Biacore 8K Evaluation software (GE Healthcare). The equilibrium binding constant KD was determined by the ratio of binding rate constants kd/kₐ.
(§2) The ability of anti-CD33 antibodies to recognize glycosylated CD33 was assayed. […] De-glycosylation status was confirmed by a shift on SDS-PAGE and MS.

Assay [4] has as its target T1, V domain of human CD33. The source holds these as a separate data set.
Experimental: as §1, §2
Assay [5] concerns the target T2, human CD33 extracellular domain. This is another data set of the same source.
Experimental: as §1
(§3) Affinity of 29 Fab fragments binding to human and cyno CD33 ECD were assayed by Biacore analysis.
In assay [6] the target is T4, C domain of human CD33 (human, UniProt P20138 140-259, limits assumed).
T4 construct: recombinant C domain

In assay [7] the target is T2, human CD33 extracellular domain. This is another data set of the same source.
Experimental: as §1, §3
Assay [8] addresses T5, cyno CD33 extracellular domain (Cynomolgus/Rhesus (cyno)).
T5 construct: soluble monomeric ECD; also called cyno CD33 ECD
Experimental: as §1, §3

Assay [9] concerns the target T2, human CD33 extracellular domain. This is another data set of the same source.
Experimental: as §1, §3

B1: ADI-11826 Fab (Fab, V domains shown)
VH: EVQLVESGGGLVQPGGSLRLSCAASGFTFPGYWMSWVRQAPGKGLEWVANINQDGSEVYYVDSVKGRFTISRDNAKNSLYLQMNSLRAEDTAVYYCAREANYYGNVGDDYWGQGTLVTVSS
VL: DIQMTQSPSSLSASVGDRVTITCRASQSIYNYLNWYQQKPGKAPKLLIYAASSTQSGVPSRFSGSGSGTDFTLTISSLQPEDFATYYCQQAFHVPITFGGGTKVEIK
notes: Fab fragment; also called Ab26
With B1, the Kd in assay [1] amounted to 4.38 nM; in assay [2] it was 2.63 nM; in assay [3] it was 3.69 nM; in assay [4], 4.38 nM; in [5] it was 2.63 nM; in assay [7], 2.63 nM. Also, the Kd in [9] was determined as 2.63 nM. Further, the koff in assay [1] worked out at 0.0225 s⁻¹; in assay [2], 0.00463 s⁻¹; in [3], 0.0198 s⁻¹; in [4], 0.0225 s⁻¹; in [5] it was 0.00463 s⁻¹; in [7] it was 0.00463 s⁻¹. In assay [9], this molecule registered a koff of 0.00463 s⁻¹. Moreover, the kon in [1] came to 5.12e+06 M⁻¹ s⁻¹; in assay [2], 1.76e+06 M⁻¹ s⁻¹; in [3], 5.37e+06 M⁻¹ s⁻¹; in assay [4], 5.12e+06 M⁻¹ s⁻¹; in assay [7] it was 1.76e+06 M⁻¹ s⁻¹; in [9] it was 1.76e+06 M⁻¹ s⁻¹. The binding result in [6] is reported as “no binding”; in assay [8], “no binding (tested: 100 nM)”.

B2: ADI-10163 Fab (Fab, V domains shown)
VH: QVQLQESGPGLVKPSQTLSLTCTVSGGSISSGGYYWSWIRQHPGKGLEWIGSIYYSGSTYYNPSLKSRVTISVDTSKNQFSLKLSSVTAADTAVYYCARDRLDYSYNYGMDVWGQGTTVTVSS
VL: DIQMTQSPSSLSASVGDRVTITCRASQSISSYLNWYQQKPGKAPKLLIYGASSLQSGVPSRFSGSGSGTDFTLTISSLQPEDFATYYCQQVYSAPFTFGGGTKVEIK
notes: Fab fragment; also called Ab17
As to B2, the Kd in [2] amounted to 53.5 nM; in [3], 152 nM; in [5] it was 53.5 nM; in assay [7], 53.5 nM; in [9] it was 53.5 nM. Moreover, the binding result is “no binding” in [6] and “no binding (tested: 100 nM)” in assay [8].

B3: ADI-10160 Fab (Fab, V domains shown)
VH: EVQLVESGGGLVQPGGSLRLSCAASGFTFSSYWMSWVRQAPGKGLEWVANINQDGSEKYYVDSVKGRFTISRDNAKNSLYLQMNSLRAEDTAVYYCAREANYYGNVGDDYWGQGTLVTVSS
VL: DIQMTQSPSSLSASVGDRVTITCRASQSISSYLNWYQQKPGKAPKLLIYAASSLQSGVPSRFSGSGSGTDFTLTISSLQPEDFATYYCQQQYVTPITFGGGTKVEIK
notes: Fab fragment; also called Ab15
B3: the Kd in assay [1] came to 206 nM; in assay [2], 42.2 nM; in assay [3], 133 nM; in assay [4], 206 nM; in assay [5], 42.2 nM; in [7], 42.2 nM. In [9], this molecule gave a Kd of 42.2 nM. In addition, the koff in assay [1] is 0.327 s⁻¹; in [2], 0.0269 s⁻¹; in [3], 0.225 s⁻¹; in assay [4] it was 0.327 s⁻¹; in [5] it was 0.0269 s⁻¹; in assay [7], 0.0269 s⁻¹. The koff in assay [9] was 0.0269 s⁻¹. Moreover, the kon in assay [1] is 1.59e+06 M⁻¹ s⁻¹; in assay [2], 637000 M⁻¹ s⁻¹; in [3], 1.7e+06 M⁻¹ s⁻¹; in assay [4], 1.59e+06 M⁻¹ s⁻¹; in assay [7] it was 637000 M⁻¹ s⁻¹; in assay [9], 637000 M⁻¹ s⁻¹. Besides, the binding result is reported as “no binding” in [6] and “no binding (tested: 100 nM)” in assay [8].

B4: ADI-10157 Fab (Fab, V domains shown)
VH: QVQLQESGPGLVKPSETLSLTCTVSGGSISSYYWSWIRQPPGKGLEWIGSIYYSGSTNYNPSLKSRVTISVDTSKNQFSLKLSSVTAADTAVYYCARVGGVYSTIETYGMDVWGQGTTVTVSS
VL: EIVMTQSPATLSVSPGERATLSCRASQSVSSNLAWYQQKPGQAPRLLIYGASTRATGIPARFSGSGSGTEFTLTISSLQSEDFAVYYCQQYTVYPPTFGGGTKVEIK
notes: Fab fragment; also called Ab13
B4: the Kd in assay [1] amounted to 134 nM; in assay [2], 2.69 nM; in [3], 63.8 nM; in [4], 134 nM; in assay [5] it was 2.69 nM; in [7], 2.69 nM. The molecule further displayed a Kd in assay [9] of 2.69 nM. Besides, the koff in [1] came to 0.0151 s⁻¹; in assay [2] it was 0.0076 s⁻¹; in assay [3] it was 0.0261 s⁻¹; in [4] it was 0.0151 s⁻¹; in assay [5] it was 0.0076 s⁻¹; in assay [7], 0.0076 s⁻¹. In assay [9], this molecule showed a koff of 0.0076 s⁻¹. In addition, the kon in assay [1] amounted to 112000 M⁻¹ s⁻¹; in assay [2], 2.82e+06 M⁻¹ s⁻¹; in assay [3], 411000 M⁻¹ s⁻¹; in assay [4], 112000 M⁻¹ s⁻¹; in [7], 2.82e+06 M⁻¹ s⁻¹; in assay [9], 2.82e+06 M⁻¹ s⁻¹. Besides, the binding result is on record as “no binding” in [6] and “no binding (tested: 100 nM)” in assay [8].

B5: ADI-11802 Fab (Fab, V domains shown)
VH: QVQLVQSGAEVKKPGASVKVSCKASGYTFSGYYMHWVRQAPGQGLEWMGMINPYGGSTRYAQKFQGRVTMTRDTSTSTVYMELSSLRSEDTAVYYCAREAADGFVGERYFDLWGRGTLVTVSS
VL: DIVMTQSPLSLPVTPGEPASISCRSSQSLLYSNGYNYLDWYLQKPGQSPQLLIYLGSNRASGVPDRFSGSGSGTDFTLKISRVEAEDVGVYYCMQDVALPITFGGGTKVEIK
notes: Fab fragment; also called Ab23
As for B5, the dissociation constant Kd was 3.2 nM in [1]; 3.14 nM in assay [2]; 2.65 nM in [3]; 3.2 nM in [4]; 3.14 nM in assay [5]; 3.14 nM in assay [7]. Besides, in assay [9], the Kd worked out at 3.14 nM. The koff came out at 0.00435 s⁻¹ in [1]; 0.00154 s⁻¹ in [2]; 0.00417 s⁻¹ in assay [3]; 0.00435 s⁻¹ in assay [4]; 0.00154 s⁻¹ in assay [5]; 0.00154 s⁻¹ in assay [7]. In [9], this molecule came in with a dissociation rate constant (koff) of 0.00154 s⁻¹. Also, the kon turned out to be 1.34e+06 M⁻¹ s⁻¹ in [1]; 490000 M⁻¹ s⁻¹ in [2]; 1.57e+06 M⁻¹ s⁻¹ in assay [3]; 1.34e+06 M⁻¹ s⁻¹ in [4]; 490000 M⁻¹ s⁻¹ in assay [7]; 490000 M⁻¹ s⁻¹ in assay [9]. For the same molecule, the binding result is given as “no binding” in assay [6] and “no binding (tested: 100 nM)” in [8].

B6: ADI-10173 Fab (Fab, V domains shown)
VH: QVQLVQSGAEVKKPGASVKVSCKASGYTFTSYYMHWVRQAPGQGLEWMGIINPSGGSTTYAQKFQGRVTMTRDTSTSTVYMELSSLRSEDTAVYYCAREAADGFVGERYFDLWGRGTLVTVSS
VL: not shown
notes: Fab fragment; also called Ab22
Regarding B6, the Kd amounted to 58.8 nM in [2]; 200 nM in assay [3]; 58.8 nM in [5]; 58.8 nM in assay [7]; 58.8 nM in assay [9]. Besides, the binding result is “no binding” in assay [6] and “no binding (tested: 100 nM)” in assay [8].

B7: ADI-11812 Fab (Fab, V domains shown)
VH: QVQLVQSGAEVKKPGASVKVSCKASGYTFEIYYMHWVRQAPGQGLEWMGIINPSSGSTVYAQKFQGRVTMTRDTSTSTVYMELSSLRSEDTAVYYCARGAGYDDEDMDVWGKGTTVTVSS
VL: DIQMTQSPSSVSASVGDRVTITCRASQGIDSWLAWYQQKPGKAPKLLIYAASSLQSGVPSRFSGSGSGTDFTLTISSLQPEDFATYYCQQAHSYPLTFGGGTKVEIK
notes: Fab fragment; also called Ab24
Consider B7, for which the binding result in [1] is on record as “no binding”; in assay [3], “no binding”; in assay [6] it was “no binding”; in assay [8], “no binding (tested: 100 nM)”. The Kd in [2], in [5], in assay [7] and in [9] was 1.23 nM throughout. The koff in assay [2], in [5], in assay [7] and in assay [9] was 0.000486 s⁻¹ throughout. Also, the kon in assay [2], in [7] and in assay [9] was 396000 M⁻¹ s⁻¹ each time.

B8: ADI-10177 Fab (Fab, V domains shown)
VH: EVQLVESGGGLVQPGGSLRLSCAASGFTFSSYWMSWVRQAPGKGLEWVANIKQDGSEKYYVDSVKGRFTISRDNAKNSLYLQMNSLRAEDTAVYYCARPLNAGELDVWGQGTMVTVSS
VL: DIQMTQSPSTLSASVGDRVTITCRASQSISSWLAWYQQKPGKAPKLLIYEASSLESGVPSRFSGSGSGTEFTLTISSLQPDDFATYYCQQLESYPLTFGGGTKVEIK
notes: Fab fragment; also called Ab2
For B8, the Kd was found to be 54.8 nM in [1]; 11.4 nM in [2]; 38.2 nM in [3]; 54.8 nM in assay [4]; 11.4 nM in assay [7]; 21.4 nM in assay [8]. The Kd in assay [9] is 11.4 nM. Further, the koff in assay [1] turned out to be 0.0857 s⁻¹; in assay [2] it was 0.00636 s⁻¹; in [3], 0.0701 s⁻¹; in assay [4] it was 0.0857 s⁻¹; in assay [7], 0.00636 s⁻¹; in [8] it was 0.00754 s⁻¹. In assay [9], the off-rate constant (koff) is 0.00636 s⁻¹. The kon was 1.56e+06 M⁻¹ s⁻¹ in assay [1]; 558000 M⁻¹ s⁻¹ in assay [2]; 1.88e+06 M⁻¹ s⁻¹ in assay [3]; 1.56e+06 M⁻¹ s⁻¹ in [4]; 558000 M⁻¹ s⁻¹ in [7]; 353000 M⁻¹ s⁻¹ in assay [8]. In assay [9], the kon was determined as 558000 M⁻¹ s⁻¹. Also, the binding result in assay [6] is given as “no binding”.
